Source: patent US20240116985A1, “STAPLED PEPTIDES AND METHODS THEREOF” (priority 2020, published 2024)
Starred links: 1 amine or outer side, 2 acyl side, 3 side chain; linkers in the order of their positions; H or OH if unused. Positions of bridges follow the written chain, without caps; N, C: chain ends. Non-standard residues stand in square brackets, D forms with d. Primed or numbered codes have the meaning given here. *: point of attachment. PyrS2″ = (S)-3-amino-1-((pent-4-en-1-yloxy)carbonyl)pyrrolidine-3-carboxylic acid (stapling residue), C=CCCCOC(=O)N1CC[C@@](N[*:1])(C(=O)[*:2])C1; B5(30) = 2-amino-2-(pent-4-en-1-yl)hept-6-enoic acid (2,2-bis(4-pentenyl)glycine, stitching residue), C=CCCCC(CCCC=C)(N[*:1])C(=O)[*:2]; B5(4) = 2,2-bis(4-pentenyl)glycine = 2-amino-2-(pent-4-en-1-yl)hept-6-enoic acid (stitching residue), C=CCCCC(CCCC=C)(N[*:1])C(=O)[*:2]; B5(20) = 2-amino-2-(pent-4-en-1-yl)hept-6-enoic acid = bis(4-pentenyl)glycine, stitching residue, C=CCCCC(CCCC=C)(N[*:1])C(=O)[*:2]; Ala(1H-tetrazol-5-yl) = N[C@@H](Cc1nnn[nH]1)C(=O)O; Phe(3-COOH) = N[C@@H](Cc1cccc(C(=O)O)c1)C(=O)O; Phe(2-CF3) = N[C@@H](Cc1ccccc1C(F)(F)F)C(=O)O; Ala(4-thiazolyl) = N[C@@H](Cc1cscn1)C(=O)O; Abu(4,4,4-F3) = N[C@@H](CC(F)(F)F)C(=O)O; Phe(4-NH2) = Nc1ccc(C[C@H](N)C(=O)O)cc1; Ala(2-furyl) = N[C@@H](Cc1ccco1)C(=O)O; Phe(3-Me) = Cc1cccc(C[C@H](N)C(=O)O)c1; Phe(4-Me) = Cc1ccc(C[C@H](N)C(=O)O)cc1; 2Nal = N[C@@H](Cc1ccc2ccccc2c1)C(=O)O; Phe(2-Me) = Cc1ccccc1C[C@H](N)C(=O)O; Abu(4,4-F2) = N[C@@H](CC(F)F)C(=O)O; Bta = N[C@@H](Cc1csc2ccccc12)C(=O)O; Lys(iPr) = CC(C)NCCCC[C@H](N)C(=O)O; αAllylPro = C=CC[C@@]1(C(=O)O)CCCN1; hPhe = N[C@@H](CCc1ccccc1)C(=O)O; tBuAla = CC(C)(C)C[C@H](N)C(=O)O; 2Thi = N[C@@H](Cc1cccs1)C(=O)O; 3Thi = N[C@@H](Cc1ccsc1)C(=O)O; Cha = N[C@@H](CC1CCCCC1)C(=O)O; S8 = C=CCCCCCC[C@](C)(N)C(=O)O; hSer = N[C@@H](CCO)C(=O)O; Dab = NCC[C@H](N)C(=O)O; Nva = CCC[C@H](N)C(=O)O; Abu = CC[C@H](N)C(=O)O; Dap = NC[C@H](N)C(=O)O; Ms = CS(=O)(=O)*

B1: I-503 (peptide)
peptide: Ac-[αAllylPro]D[Abu(4,4-F2)][B5(4)]DEAAFQ[S8]F[Bta]Q-NH2
modifications: staple 1-4, 4-11
B2: I-504 (peptide)
peptide: Ac-[αAllylPro]D[Abu(4,4,4-F3)][B5(4)]DEAAFQ[S8]F[Bta]H-NH2
modifications: staple 1-4, 4-11
B3: I-509 (peptide)
peptide: Ac-[αAllylPro]DA[B5(4)]DEAAFQ[S8]F[Bta][Abu]-NH2
modifications: staple 1-4, 4-11
B4: I-516 (peptide)
peptide: Ac-[αAllylPro]DA[B5(20)]DEAAFN[S8][3Thi][Bta]H-NH2
modifications: staple 1-4, 4-11; also: later-eluting HPLC peak of staple isomers
B5: I-517 (peptide)
peptide: Ac-[αAllylPro]DI[B5(20)]DEAAFN[S8][3Thi][Bta]H-NH2
modifications: staple 1-4, 4-11
B6: I-519 (peptide)
peptide: Ac-[αAllylPro]DA[B5(20)]DEAAFN[S8][3Thi][Bta]Q-NH2
modifications: staple 1-4, 4-11; also: later-eluting HPLC peak of staple isomers
B7: I-521 (peptide)
peptide: Ac-[αAllylPro]DI[B5(20)]DEAAFN[S8][3Thi][Bta]Q-NH2
modifications: staple 1-4, 4-11; also: later-eluting HPLC peak of staple isomers
B8: I-523 (peptide)
peptide: Ac-[αAllylPro]D[Nva][B5(4)]DEAAFQ[S8]F[Bta]Q-NH2
modifications: staple 1-4, 4-11; also: later eluting HPLC peak staple isomer
B9: I-524 (peptide)
peptide: Ac-[αAllylPro]DA[B5(4)]DEAA[Ala(4-thiazolyl)]N[S8]F[Bta]Q-NH2
modifications: staple 1-4, 4-11
B10: I-529 (peptide)
peptide: Ac-[αAllylPro]DA[B5(4)][Dap](Ms)EAAFN[S8]F[Bta]Q-NH2
modifications: staple 1-4, 4-11
B11: I-530 (peptide)
peptide: Ac-[αAllylPro]DA[B5(4)][Dap](Ms)EAAFN[S8]F[Bta]Q-NH2
modifications: staple 1-4, 4-11
B12: I-531 (peptide)
peptide: Ac-[αAllylPro]DA[B5(4)][Dab](Ms)EAAFN[S8]F[Bta]Q-NH2
modifications: staple 1-4, 4-11
B13: I-532 (peptide)
peptide: Ac-[αAllylPro]DA[B5(4)][Dab](Ms)EAAFN[S8]F[Bta]Q-NH2
modifications: staple 1-4, 4-11
B14: I-442 (peptide)
peptide: Ac-[αAllylPro]DA[B5(4)]DEAAFN[S8][hPhe][Bta]Q-NH2
modifications: staple 1-4, 4-11; also: staple isomer composition, earlier-eluting HPLC peak
B15: I-443 (peptide)
peptide: Ac-[αAllylPro]DA[B5(4)]DEAAFN[S8][hPhe][Bta]Q-NH2
modifications: staple 1-4, 4-11; also: staple isomer composition, later-eluting HPLC peak
B16: I-444 (peptide)
peptide: Ac-[αAllylPro]DA[B5(4)]D[Ala(1H-tetrazol-5-yl)]AAFN[S8]F[Bta]Q-NH2
modifications: staple 1-4, 4-11
B17: I-445 (peptide)
peptide: Ac-[αAllylPro]DA[B5(4)][Ala(1H-tetrazol-5-yl)]DAAFN[S8]F[Bta]Q-NH2
modifications: staple 1-4, 4-11
B18: I-446 (peptide)
peptide: Ac-[αAllylPro]DA[B5(4)]DEAA[2Thi]N[S8]F[Bta]Q-NH2
modifications: staple 1-4, 4-11; also: staple isomer composition, earlier-eluting HPLC peak
B19: I-447 (peptide)
peptide: Ac-[αAllylPro]DA[B5(4)]DEAA[2Thi]N[S8]F[Bta]Q-NH2
modifications: staple 1-4, 4-11; also: staple isomer composition, later-eluting HPLC peak
B20: I-448 (peptide)
peptide: Ac-[αAllylPro]DA[B5(4)]DEAA[3Thi]N[S8]F[Bta]Q-NH2
modifications: staple 1-4, 4-11
B21: I-449 (peptide)
peptide: Ac-[αAllylPro]DA[B5(4)]DEAA[3Thi]N[S8]F[Bta]Q-NH2
modifications: staple 1-4, 4-11
B22: I-456 (peptide)
peptide: Ac-[αAllylPro]DA[B5(4)]DEAA[Phe(2-Me)]N[S8]F[Bta]Q-NH2
modifications: staple 1-4, 4-11
B23: I-457 (peptide)
peptide: Ac-[αAllylPro]DA[B5(4)]DEAA[Phe(2-Me)]N[S8]F[Bta]Q-NH2
modifications: staple 1-4, 4-11
B24: I-458 (peptide)
peptide: Ac-[αAllylPro]DA[B5(4)]DEAA[Phe(3-Me)]N[S8]F[Bta]Q-NH2
modifications: staple 1-4, 4-11
B25: I-459 (peptide)
peptide: Ac-[αAllylPro]DA[B5(4)]DEAA[Phe(4-Me)]N[S8]F[Bta]Q-NH2
modifications: staple 1-4, 4-11
B26: I-460 (peptide)
peptide: Ac-[αAllylPro]DA[B5(4)]DEAA[Ala(2-furyl)]N[S8]F[Bta]Q-NH2
modifications: staple 1-4, 4-11
B27: I-461 (peptide)
peptide: Ac-[αAllylPro]DA[B5(4)]DEAA[Phe(4-NH2)]N[S8]F[Bta]Q-NH2
modifications: staple 1-4, 4-11
B28: I-2452 (peptide)
peptide: Ac-[αAllylPro]N[Cha][B5(30)]DQ[Lys(iPr)]AFL[PyrS2″][3Thi][Bta]Q-NH2
modifications: staple 1-4, 4-11; not fully specified; printed as Ac-PL3-Asn-Cha-B5-Asp-Gln-iPrLys-Ala-Phe-Leu-PyrS2-3Thi-BztA-Gln-NH2; also: staple -CH=CH- reduced to -CH2-CH2-
B29: I-2454 (peptide)
peptide: Ac-[αAllylPro]N[Cha][B5(30)]DT[hSer]AFL[PyrS2″]F[Bta]K-NH2
modifications: staple 1-4, 4-11; not fully specified; printed as Ac-PL3-Asn-Cha-B5-Asp-Thr-Hse-Ala-Phe-Leu-PyrS2-Phe-BztA-Lys-NH2; also: staple -CH=CH- reduced to -CH2-CH2-
B30: I-2455 (peptide)
peptide: Ac-[αAllylPro]N[Cha][B5(30)]DT[Lys(iPr)]AFL[PyrS2″]F[Bta]K-NH2
modifications: staple 1-4, 4-11; not fully specified; printed as Ac-PL3-Asn-Cha-B5-Asp-Thr-iPrLys-Ala-Phe-Leu-PyrS2-Phe-BztA-Lys-NH2; also: staple -CH=CH- reduced to -CH2-CH2-
B31: I-2457 (peptide)
peptide: Ac-[αAllylPro]D[tBuAla][B5(4)]D[Phe(3-COOH)]QAFL[PyrS2″][Phe(2-CF3)][SbMeBztA]A-NH2
modifications: staple 1-4, 4-11
B32: I-2459 (peptide)
peptide: Ac-[αAllylPro]D[tBuAla][B5(4)]D[Phe(3-COOH)]QAFL[PyrS2″][Phe(2-CF3)][RbMeBztA]A-NH2
modifications: staple 1-4, 4-11
B33: I-2461 (peptide)
peptide: Ac-[αAllylPro]D[tBuAla][B5(4)]D[Phe(3-COOH)]QAFL[PyrS2″][Phe(2-CF3)][2Nal]A-NH2
modifications: staple 1-4, 4-11

Each binder was assayed against full-length beta-Catenin (Uniprot ID P35222) (Homo sapiens (Human)) (UniProt P35222) (assay: FP competition: full-length beta-catenin 10 nM + 5FAM-TCF4(10-53) 10 nM).
Target sequence in this assay (P35222 whole entry): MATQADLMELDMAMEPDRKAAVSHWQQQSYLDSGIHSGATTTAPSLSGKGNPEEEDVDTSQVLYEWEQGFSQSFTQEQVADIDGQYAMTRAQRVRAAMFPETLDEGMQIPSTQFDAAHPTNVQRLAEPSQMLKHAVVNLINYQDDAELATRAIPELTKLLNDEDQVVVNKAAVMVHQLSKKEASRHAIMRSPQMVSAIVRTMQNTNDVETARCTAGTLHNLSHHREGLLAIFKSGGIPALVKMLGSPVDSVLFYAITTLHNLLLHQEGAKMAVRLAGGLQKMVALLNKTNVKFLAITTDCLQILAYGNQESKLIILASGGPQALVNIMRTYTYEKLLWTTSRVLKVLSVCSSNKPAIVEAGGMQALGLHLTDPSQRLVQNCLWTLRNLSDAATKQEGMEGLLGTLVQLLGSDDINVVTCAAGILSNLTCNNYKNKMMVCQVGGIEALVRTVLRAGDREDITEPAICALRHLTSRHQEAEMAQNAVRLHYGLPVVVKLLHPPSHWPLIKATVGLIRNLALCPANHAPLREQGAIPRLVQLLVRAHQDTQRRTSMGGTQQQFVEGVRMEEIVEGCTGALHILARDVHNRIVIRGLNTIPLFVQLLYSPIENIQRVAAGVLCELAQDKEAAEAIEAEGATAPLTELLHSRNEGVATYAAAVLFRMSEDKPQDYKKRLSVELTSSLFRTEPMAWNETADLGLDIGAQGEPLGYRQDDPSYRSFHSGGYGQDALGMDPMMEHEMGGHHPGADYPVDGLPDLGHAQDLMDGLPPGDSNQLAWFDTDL
For B1, the IC50 was 84 nM. In the case of B2, the IC50 is reported as 65 nM. For B3, the IC50 was 99 nM. In the case of B4, the IC50 is reported as 23 nM. Work on B5 yielded an IC50 of 15 nM. Work on B6 yielded an IC50 of 33 nM. Work on B7 yielded an IC50 of 23 nM. Work on B8 yielded an IC50 of 44 nM. Work on B9 yielded an IC50 of 2550 nM. B10 showed an IC50 of 5000 nM. B11 showed an IC50 of 5000 nM. With B12 the IC50 was 5000 nM. Binder B13 has an IC50 of 5000 nM.

Each binder was assayed against full-length beta-Catenin (Uniprot ID P35222) (Homo sapiens (Human)) (UniProt P35222) (assay: fluorescence polarization competition; full-length beta-catenin, competitor 5FAM-TCF4(10-53) probe).
Target sequence in this assay (P35222 whole entry): as above
Work on B14 yielded an IC50 of 4480 nM. B15 gave an IC50 of 2130 nM. With B16 the IC50 was 80 nM. B17 showed an IC50 of 4960 nM. Work on B18 yielded an IC50 of 130 nM. Binder B19 has an IC50 of 74 nM. In the case of B20, the IC50 is reported as 92 nM. B21 was tested, and the IC50 was 53 nM. For B22, the IC50 was 2170 nM. For B23, the IC50 was 1440 nM. B24 gave an IC50 of 102 nM. In the case of B25, the IC50 is reported as 183 nM. Binder B26 has an IC50 of 196 nM. For B27, the IC50 was 125 nM.

The binders below were run against full-length beta-Catenin (Uniprot ID P35222) (Homo sapiens (Human)) (UniProt P35222) (assay: fluorescence polarization competition; 10 nM full-length beta-catenin + 10 nM 5FAM-TCF4(10-53) probe).
Target sequence in this assay (P35222 whole entry): as above
Binder B2 has an EC50 of 65 nM. B3 gave an EC50 of 99 nM. B5 showed an EC50 of 15 nM. In the case of B9, the EC50 is reported as 2550 nM. With B10 the EC50 was 5000 nM. B11 gave an EC50 of 5000 nM. B12 showed an EC50 of 5000 nM. B13 showed an EC50 of 5000 nM.

The binders below were run against full-length beta-Catenin (Uniprot ID P35222) (Homo sapiens (Human)) (UniProt P35222) (assay: fluorescence polarization competition; displacement of 5FAM-TCF4(10-53) from full-length beta-catenin).
Target sequence in this assay (P35222 whole entry): as above
Binder B1 has an EC50 of 84 nM.

What follows are binders tested against full-length beta-Catenin (Uniprot ID P35222) (Homo sapiens (Human)) (UniProt P35222) (assay: fluorescence polarization competition: full-length beta-catenin + 5FAM-TCF4(10-53) probe, peptide titrated).
Target sequence in this assay (P35222 whole entry): as above
With B14 the EC50 was 4480 nM. In the case of B15, the EC50 is reported as 2130 nM. For B16, the EC50 was 80 nM. B17 showed an EC50 of 4960 nM. B18 showed an EC50 of 130 nM. For B19, the EC50 was 74 nM. B20 showed an EC50 of 92 nM. B21 showed an EC50 of 53 nM. Binder B22 has an EC50 of 2170 nM. B23 showed an EC50 of 1440 nM. B24 was tested, and the EC50 was 102 nM. B25 gave an EC50 of 183 nM. B26 showed an EC50 of 196 nM. B27 was tested, and the EC50 was 125 nM.

These binders were tested against full-length beta-Catenin (Uniprot ID P35222) (Homo sapiens (Human)) (UniProt P35222) (assay: fluorescence polarization competition; 10 nM full-length beta-catenin + 10 nM 5FAM-TCF4(10-53) probe, peptide titrated 10 uM to 5 nM).
Target sequence in this assay (P35222 2-781 limits assumed): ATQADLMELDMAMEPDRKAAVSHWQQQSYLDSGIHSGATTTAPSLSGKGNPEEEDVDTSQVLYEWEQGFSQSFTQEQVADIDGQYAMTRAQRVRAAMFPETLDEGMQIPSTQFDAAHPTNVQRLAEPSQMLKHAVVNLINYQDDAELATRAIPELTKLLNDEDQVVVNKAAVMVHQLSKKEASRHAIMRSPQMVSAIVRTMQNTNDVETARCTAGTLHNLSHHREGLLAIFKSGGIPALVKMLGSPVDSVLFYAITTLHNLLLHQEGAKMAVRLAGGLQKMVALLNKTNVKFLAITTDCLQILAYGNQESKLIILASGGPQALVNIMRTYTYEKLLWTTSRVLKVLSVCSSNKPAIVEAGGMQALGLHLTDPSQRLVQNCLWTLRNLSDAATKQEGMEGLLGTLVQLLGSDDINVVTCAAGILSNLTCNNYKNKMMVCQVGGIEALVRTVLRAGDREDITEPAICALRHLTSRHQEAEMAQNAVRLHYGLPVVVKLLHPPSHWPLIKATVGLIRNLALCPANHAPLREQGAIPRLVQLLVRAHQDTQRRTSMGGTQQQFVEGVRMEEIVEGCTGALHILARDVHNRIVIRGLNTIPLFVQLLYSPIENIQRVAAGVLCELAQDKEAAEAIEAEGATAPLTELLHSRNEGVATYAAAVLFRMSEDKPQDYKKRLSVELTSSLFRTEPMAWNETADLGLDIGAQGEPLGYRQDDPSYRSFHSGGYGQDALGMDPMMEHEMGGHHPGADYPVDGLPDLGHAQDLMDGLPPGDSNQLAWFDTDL
B28 was tested, and the IC50 was 7200 nM. For B29, the IC50 was 10000 nM. B30 gave an IC50 of 10000 nM. B31 showed an IC50 of 52 nM. B32 gave an IC50 of 56 nM. B33 showed an IC50 of 75 nM.
